Measured values: PMC7916480, “Functional and Structural Characterization of Nucleic Acid Ligands That Bind to Activated Coagulation Factor XIII”

T1: FXIIIa (activated coagulation factor XIII) (human, UniProt P00488 39-732)
T1 sequence: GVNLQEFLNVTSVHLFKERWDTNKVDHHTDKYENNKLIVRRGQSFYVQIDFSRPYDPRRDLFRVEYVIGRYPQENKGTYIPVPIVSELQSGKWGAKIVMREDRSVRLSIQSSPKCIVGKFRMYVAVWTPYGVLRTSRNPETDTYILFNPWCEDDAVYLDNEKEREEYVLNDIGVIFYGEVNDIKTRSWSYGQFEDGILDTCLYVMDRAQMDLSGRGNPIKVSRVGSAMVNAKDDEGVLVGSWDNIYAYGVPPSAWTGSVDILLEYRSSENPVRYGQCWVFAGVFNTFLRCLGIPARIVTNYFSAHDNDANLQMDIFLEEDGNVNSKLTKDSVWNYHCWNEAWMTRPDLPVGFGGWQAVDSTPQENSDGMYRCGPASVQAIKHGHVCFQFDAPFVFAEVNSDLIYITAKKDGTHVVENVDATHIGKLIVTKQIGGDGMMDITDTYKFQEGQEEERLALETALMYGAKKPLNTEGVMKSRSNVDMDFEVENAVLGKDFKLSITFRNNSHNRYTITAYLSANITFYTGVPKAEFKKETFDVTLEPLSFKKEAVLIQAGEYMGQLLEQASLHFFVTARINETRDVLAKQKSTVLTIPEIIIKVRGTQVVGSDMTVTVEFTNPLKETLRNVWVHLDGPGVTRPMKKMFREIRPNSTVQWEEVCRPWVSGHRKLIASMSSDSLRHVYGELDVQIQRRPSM

B1: FA3 (ssDNA)
DNA: AAGCAGTGGTAAGTAGGTTGACCATCGTAGTTCGTACACCAGTCCATTCTAGGACTCACAATCTCTTCGAGCAATCCACAC
B2: FA1 (ssDNA)
DNA: AAGCAGTGGTAAGTAGGTTGACCATCCGCCGATTAGGCAATCACGTGGCTTAGGCACCGTATCTCTTCGAGCAATCCACAC
B3: FA12 (ssDNA)
DNA: AAGCAGTGGTAAGTAGGTTGATCATCCTCTTTAAGTCATCACTTTAGTTTCTCCATCTACATCTCTTCGAGCAATCCACAC
B4: FA6 (ssDNA)
DNA: AAGCAGTGGTAAGTAGGTTGACGCTGCGGGCATCACGTAAGTTAATATATCACTCGGCTATTCTCTTCGAGCAATCCACAC
B5: FA2 (ssDNA)
DNA: AAGCAGTGGTAAGTAGGTTGAGCTTTCATCACCCGTCGGTTAGACTAAGTCTCCAGCATCCTCTCTTCGAGCAATCCACAC
B6: FA8 (ssDNA)
DNA: AAGCAGTGGTAAGTAGGTTGATCATCATGTTATTTTTGTTCCATCACGCCAGTTCTGGTTCTCTCTTCGAGCAATCCACAC

The molecules below were run against T1, FXIIIa (activated coagulation factor …) (assay: competition; competition with immobilized fibrinogen; not affected; BLI (BLItz, SAX sensors, 3'-biotinylated aptamer 1 µM) in binding buffer, 2200 rpm; buffer composition, pH and temperature not in material; plate capture 30 min; fibrinogen competition 30 min at RT). Details: protein: recombinant; chain copies: 2; label: biotin (capture).

| Molecule | binding result |
| --- | --- |
| TACTGTCACGAGGATATAGCACATTAGTTCAGATACGATTGTTACTGTCA (ssDNA) [negative control oligonucleotide] | no binding |

Each molecule was assayed against activated coagulation factor XIII (FXIIIa), recombinant human (human) (UniProt P00488) (assay: not given). Details: not given.

| Molecule | inhibition of FXIIIa isopeptidase activity (fluorogenic peptide substrate, 12.8 nM FXIIIa) by tridegin, up to 12 µM |
| --- | --- |
| Tridegin (peptide) | 50% |

These molecules were tested against T1, FXIIIa (activated coagulation factor …) (assay: BLI; BLI (BLItz, SAX sensors, 3'-biotinylated aptamer 1 µM) in binding buffer, 2200 rpm; buffer composition, pH and temperature not in material; plate capture 30 min; fibrinogen competition 30 min at RT). Details: protein: recombinant; chain copies: 2; label: 3'-biotin (BLI, capture, fibrinogen assay).

| Molecule | Kd |
| --- | --- |
| B1 | 92.9 nM |
| B2 | 50.4 nM |
| B3 | 51.8 nM |
| B4 | 93.5 nM |
| B5 | 79.1 nM |
| B6 | 79.1 nM |

These molecules were tested against T1, FXIIIa (activated coagulation factor …) (assay: pull-down (aptamer-coated plate, activity read-out); 30 nM FXIIIa; BLI (BLItz, SAX sensors, 3'-biotinylated aptamer 1 µM) in binding buffer, 2200 rpm; buffer composition, pH and temperature not in material; plate capture 30 min; fibrinogen competition 30 min at RT). Details: protein: recombinant; chain copies: 2; label: 3'-biotin (BLI, capture, fibrinogen assay).

| Molecule | binding signal |
| --- | --- |
| B1 | ~5 % captured |
| B3 | 10 % captured |
| B4 | ~5 % captured |

What follows are molecules tested against T1, FXIIIa (activated coagulation factor …) (assay: competition; competition with immobilized fibrinogen, 25 nM FXIIIa; BLI (BLItz, SAX sensors, 3'-biotinylated aptamer 1 µM) in binding buffer, 2200 rpm; buffer composition, pH and temperature not in material; plate capture 30 min; fibrinogen competition 30 min at RT). Details: protein: recombinant; chain copies: 2; label: 3'-biotin (BLI, capture, fibrinogen assay).

| Molecule | IC50 |
| --- | --- |
| B1 | 66.2 nM |
| B2 | 89.5 nM |
| B3 | 38 nM |
| B4 | 57 nM |
| B5 | 39.3 nM |
| B6 | 136 nM |
